The test has as its target T1, human LDL (Low Density Lipoprotein) receptor (human, UniProt P01130 22-860).
T1 construct: whole, on cells; Endogenous receptor on human A549 and MDA-MB-231 cells (flow cytometry); also called LDL-R; human LDL-R
As to the kind of experiment: Western blot of total protein extracts of MDA-MB-231 cells. (Immunoblotting shows a protein as a band on a membrane.)

T1 sequence (P01130 22-860): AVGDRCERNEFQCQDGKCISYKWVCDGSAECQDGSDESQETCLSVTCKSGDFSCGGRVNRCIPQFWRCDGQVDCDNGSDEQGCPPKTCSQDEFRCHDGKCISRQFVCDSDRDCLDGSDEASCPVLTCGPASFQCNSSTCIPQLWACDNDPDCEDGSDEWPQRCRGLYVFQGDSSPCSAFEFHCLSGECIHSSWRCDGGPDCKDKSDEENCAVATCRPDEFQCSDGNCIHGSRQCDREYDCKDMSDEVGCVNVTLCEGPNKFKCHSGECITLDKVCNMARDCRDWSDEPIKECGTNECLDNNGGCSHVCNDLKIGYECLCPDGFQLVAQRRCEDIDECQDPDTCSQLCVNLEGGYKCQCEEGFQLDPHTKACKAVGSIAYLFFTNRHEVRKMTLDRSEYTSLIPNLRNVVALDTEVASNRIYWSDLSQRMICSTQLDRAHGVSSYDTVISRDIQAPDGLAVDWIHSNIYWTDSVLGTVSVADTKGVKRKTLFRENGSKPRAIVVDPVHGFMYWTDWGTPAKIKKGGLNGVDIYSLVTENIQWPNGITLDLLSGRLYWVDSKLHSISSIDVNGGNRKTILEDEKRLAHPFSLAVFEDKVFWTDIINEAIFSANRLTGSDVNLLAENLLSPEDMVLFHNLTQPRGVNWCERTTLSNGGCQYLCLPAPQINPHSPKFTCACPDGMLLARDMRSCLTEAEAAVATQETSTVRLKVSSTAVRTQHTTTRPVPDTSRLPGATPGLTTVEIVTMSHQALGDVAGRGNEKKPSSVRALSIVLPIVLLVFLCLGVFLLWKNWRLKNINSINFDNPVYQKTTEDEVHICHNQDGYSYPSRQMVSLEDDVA

B1: Anti-LDL-R 5E5 monoclonal antibody produced by the hybridoma H5E5 (CNCM I-3488) (antibody, V domains shown)
VH: QVQLQQSGPELVRPGVSVKISCKGSGYTFTDYAMHWVKQSHAQSLEWIGFISTYSGNTNYNQKFKGRATMTVDKSSSTAYMELARLTSEDSAIYYCARPNYYGSSPGGFAYWGQGTLVTVSA
VL: ENVLTQSPAIMSASLGEKVTMSCRARSSVNYMYWYQQKSDASPKLWIYYTSNLAPGVPARFSGSGSGNSYSLTISSMEGEDAATYYCQQFTSSPSFGGGTKLEIK
notes: also called anti-LDL-R 5E5 antibodies; murine antibody 5E5
Turning to B1, the binding result was “binds”.

The values above are taken from patent WO2007014992A2 (dated 2007).
